US20240101645A1 (HENRY M JACKSON FOUNDATION FOR THE ADVANCEMENT OF MILITARY …, published 2024)

How the values were obtained:
[1] = biological target: T1, HCoV-229E spike antigens (bead panel) (HCoV-229E, UniProt P15423 16-1115); experiment: multiplex bead assay
T1 sequence: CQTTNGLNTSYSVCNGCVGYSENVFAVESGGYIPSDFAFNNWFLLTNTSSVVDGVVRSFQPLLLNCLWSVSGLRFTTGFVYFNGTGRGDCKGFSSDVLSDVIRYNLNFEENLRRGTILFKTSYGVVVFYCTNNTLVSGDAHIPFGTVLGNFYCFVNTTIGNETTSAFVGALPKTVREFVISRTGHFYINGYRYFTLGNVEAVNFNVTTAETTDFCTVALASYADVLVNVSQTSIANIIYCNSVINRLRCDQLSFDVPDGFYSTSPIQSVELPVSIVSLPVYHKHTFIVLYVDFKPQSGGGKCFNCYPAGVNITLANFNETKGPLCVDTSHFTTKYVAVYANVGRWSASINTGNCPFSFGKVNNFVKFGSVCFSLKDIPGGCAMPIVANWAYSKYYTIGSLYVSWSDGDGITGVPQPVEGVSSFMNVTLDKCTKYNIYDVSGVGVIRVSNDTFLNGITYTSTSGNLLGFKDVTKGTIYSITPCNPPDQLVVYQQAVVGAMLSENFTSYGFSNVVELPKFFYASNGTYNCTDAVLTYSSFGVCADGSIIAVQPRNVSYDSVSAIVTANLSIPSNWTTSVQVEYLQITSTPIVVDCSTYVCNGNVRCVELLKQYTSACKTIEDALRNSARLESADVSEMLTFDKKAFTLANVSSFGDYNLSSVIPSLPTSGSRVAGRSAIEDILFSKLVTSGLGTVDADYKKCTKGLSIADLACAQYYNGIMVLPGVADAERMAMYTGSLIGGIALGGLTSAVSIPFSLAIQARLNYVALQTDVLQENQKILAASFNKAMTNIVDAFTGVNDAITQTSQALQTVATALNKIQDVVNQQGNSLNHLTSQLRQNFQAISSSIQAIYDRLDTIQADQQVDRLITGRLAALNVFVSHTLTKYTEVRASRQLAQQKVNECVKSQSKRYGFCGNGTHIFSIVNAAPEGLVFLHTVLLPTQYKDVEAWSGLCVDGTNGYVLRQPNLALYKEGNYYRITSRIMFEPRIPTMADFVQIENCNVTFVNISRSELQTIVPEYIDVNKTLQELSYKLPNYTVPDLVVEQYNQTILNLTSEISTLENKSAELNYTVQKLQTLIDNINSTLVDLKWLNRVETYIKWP

[2] = biological target: T2, HCoV-OC43 spike antigens (bead panel) (HCoV-OC43, UniProt P36334 14-1297); experiment: multiplex bead assay
T2 sequence: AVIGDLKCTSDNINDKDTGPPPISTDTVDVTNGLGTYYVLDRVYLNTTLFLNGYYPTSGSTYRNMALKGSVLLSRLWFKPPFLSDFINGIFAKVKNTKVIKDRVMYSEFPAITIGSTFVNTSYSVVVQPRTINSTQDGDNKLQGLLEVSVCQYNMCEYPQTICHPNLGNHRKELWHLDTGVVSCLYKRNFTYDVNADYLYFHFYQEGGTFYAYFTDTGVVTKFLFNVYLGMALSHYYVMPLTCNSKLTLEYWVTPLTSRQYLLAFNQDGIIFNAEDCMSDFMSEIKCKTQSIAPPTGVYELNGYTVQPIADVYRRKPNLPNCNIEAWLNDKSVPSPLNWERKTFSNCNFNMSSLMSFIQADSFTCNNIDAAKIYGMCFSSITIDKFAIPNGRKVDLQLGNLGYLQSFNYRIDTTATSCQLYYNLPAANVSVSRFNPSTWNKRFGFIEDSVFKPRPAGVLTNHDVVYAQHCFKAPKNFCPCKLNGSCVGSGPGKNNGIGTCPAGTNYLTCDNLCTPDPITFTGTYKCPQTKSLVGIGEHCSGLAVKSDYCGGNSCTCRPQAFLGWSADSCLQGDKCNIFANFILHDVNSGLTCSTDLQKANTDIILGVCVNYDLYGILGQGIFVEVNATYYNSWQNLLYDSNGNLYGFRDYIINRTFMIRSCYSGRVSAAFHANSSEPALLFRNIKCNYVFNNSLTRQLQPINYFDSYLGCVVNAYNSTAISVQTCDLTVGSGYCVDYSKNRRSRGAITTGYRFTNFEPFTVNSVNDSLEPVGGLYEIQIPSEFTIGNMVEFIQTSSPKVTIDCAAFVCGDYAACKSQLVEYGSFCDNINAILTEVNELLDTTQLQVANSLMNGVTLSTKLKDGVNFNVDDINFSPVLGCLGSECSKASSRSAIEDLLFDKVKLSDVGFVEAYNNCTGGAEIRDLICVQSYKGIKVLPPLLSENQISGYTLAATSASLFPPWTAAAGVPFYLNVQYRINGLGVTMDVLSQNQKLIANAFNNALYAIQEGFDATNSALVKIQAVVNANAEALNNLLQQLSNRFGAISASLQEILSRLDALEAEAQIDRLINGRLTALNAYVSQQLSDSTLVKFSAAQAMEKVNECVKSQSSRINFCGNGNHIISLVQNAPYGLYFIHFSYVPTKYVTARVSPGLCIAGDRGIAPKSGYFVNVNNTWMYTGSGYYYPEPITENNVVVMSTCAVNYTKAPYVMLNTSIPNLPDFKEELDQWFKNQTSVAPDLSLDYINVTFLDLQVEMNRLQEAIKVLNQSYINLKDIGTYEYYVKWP

B1: COV_2143 (antibody, V domains shown)
VH: EVQLVESGGGVVQPGRSLRLSCAASGFTFNSFAMLWVRQAPGKGLEWVALFSYDGSNKYYADSVKGRFTISRDNSKNTLYLQMNNLRAVDTAVYYCARASPYDINGYYLHRIAFDIWGQGTMVTVSS
VL: QSVLMQPPSVSGAPGQRVTISCTGSSSNIGAGYDVHWYQQLPGTAPKLLMYGNSNRPSGVPDRFSGSKSGTSASLAITGLQAEDEADYYCQSYDSGLSGWVFGGGTKLTVLG
notes: human IgG1
B1: no binding [1]; no binding [2].

B2: COV_2172 (SEQ ID NO:872/877) (antibody, V domains shown)
VH: EVQLVESGGGVVQPGRSLRLSCAPSGFTFSTYAMHWVRQAPGKGLEWVAVISYDGSIKYYADSVKGRFTISRDNTMNTVFLQMNSLRAEDTAVYFCAKGGERWELFTSFDYWGQGTQVTVSS
VL: QSALTQPRSVSGSPGQSVTISCTGTSSDVGGYNYVSWYQQHPGKAPKLMIYDVSKRPSGVPDRFSGSKSGNTASLTISGLQAEDEADYYCCSYAGSYTFVFGGGTKLTVLG
B2: no binding [1]; no binding [2].

B3: COV_2174 (antibody, V domains shown)
VH: EVQLAESGGGLVKPGGSLRLSCAASGFTFSDYYMSWIRQAPGKGLEWVSYISSSGSTIYYADSVKGRFTISRDNAKNSLYLQMNSLRAEDTAVYYCARDWSVVVVPAAPAVDVWGQGTTVTVSS
VL: DIQMTQSPSSLSASVGDRVTITCRASQGISNYLAWFQQKPGKAPKSLIYAASSLQSGVPSKFSGSGSGTDFTLTISSLQPEDFATYYCQQYNSYPLTFGGGTKVEIKR
notes: human IgG1
B3: no binding [1]; no binding [2].

B4: COV_3077 (antibody, V domains shown)
VH: QVQLQESGPGLVKPSETLSLTCAVSGYSISSGYYWGWIRQPPGKGLEWIGSIYHSGSTYYNPSLKSRVTISVDTSKNQFSLKLSSVTAADTAVYYCARALYDAFDIWGQGTMVTVSS
VL: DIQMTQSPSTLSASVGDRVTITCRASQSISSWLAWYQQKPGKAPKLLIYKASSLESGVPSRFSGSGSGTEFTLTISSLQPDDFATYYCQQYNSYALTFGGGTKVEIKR
notes: human IgG1
B4: no binding [1]; no binding [2].

B5: COV_2014 (antibody, V domains shown)
VH: QVQLVQSGAEVKKPGASVKVSCKVSGYTLTELSMHWVRQAPGKGLEWMGGFDPEDGETIYAQKFQGRVTMTEDTSTDTAYMELSSLRSEDTAVYYCATGKINYYDSSGYYGTFDYWGQGTLVTVSS
VL: AIQLTQSPSSLSASVGDRVTITCRASQGISSYLAWYQQKPGKAPKLLIYAASTLQSGVPSRFSGSGSGTDFTLTISSLQPEDFATYYCQQLNSYHLTFGQGTRLEIK
notes: human IgG1
B5: no binding [1]; no binding [2].

B6: COV_2039 (antibody, V domains shown)
VH: QVQLVQSGAEVKKPGASVKVSCKVSGYMLIELSMHWVRQAPGKGLEWMGGFDPEDAETIYAQEFQGRVTMTEDTSTDTAYMELSSLRSEDTAVYYCTTGPAVTNRPADYWGPGTLVTVSS
VL: QSVLTQPPSVSGAPGQRVTISCTGSSSNIGASYDVHWYQQLPGTAPKLLIYANSNRPSGVPDRFSGSKSGTSASLAITGLQAEDEADYYCQSYDSSLSYSVVFGGGTKLTVL
notes: human IgG1
B6: no binding [1]; no binding [2].

B7: COV_2025 (antibody, V domains shown)
VH: QVHLVQSGAEVKKPGASVKVSCKVSGYTLVELSVHWVRQAPAKGLEWIGGFDPEDGETIYAQKFQGRVTMTEDTSTDTAYMELTNLRSEDTAVYYCVTSQPFVSPNWFDPWGQGTLVTVSS
VL: QSALTQPASVSGSPGQSITISCTGTSRDVGAYNYVSWYQQHPGKAPKLMIYEVTTRPSGVSNRFSGSKSGNTASLTISGLQAEDEADYYCSSYTGSRTLVFGTGTKVTVL
notes: human IgG1
B7: no binding [1]; no binding [2].

B8: COV_2027 (antibody, V domains shown)
VH: EVQLVESGGGLIQPGGSLRLSCAASGFSVSTNYMSWVRQAPGKGLEWVSIIYSGGGTYYADSVKGRFTISRDTSENTLYLQMNSLRAEDTAVYYCASFLVGATGQPWYWGQGTLVTVSS
VL: not shown
notes: human IgG1
B8: no binding [1]; no binding [2].

B9: COV_2028 (antibody, V domains shown)
VH: QVQLQESGPGLVKPSGTLSLTCVVSGGSISSSNWWSWVRQPPGKGLEWIGEIYHSGSTNYNPSLKSRVTISVDKSKNQFSLRLTSVTAADTAVYYCARGWNYDYWGQGTLVTVSS
VL: QSALTQPASVSGSPGQSITIACTGTSSDVGSYNLVSWYQQHPGKAPKLMIYEVSKRPSGLSNRFSGSKSGNTASLTISGLQAEDEADYYCYSYAGSSTWVFGGGTKLTVL
notes: human IgG1
B9: no binding [1]; no binding [2].

B10: COV_2035 (antibody, V domains shown)
VH: QVQLVQSGAEVKKPGASVKVSCKVSGYTLPELSIHWVRQAPGKGLEWLGGFDPEDGKIIYAQKFQGRVTMTEDTSTDTAYMELSSLRSEDTAVYYCATSPAVVERGWFDPWGQGTLVTVSS
VL: QSALTQPPSASGSPGQSVTISCTGTSSDVGGYNYVSWYQQHPGKAPKLMIYEVSKRPSGVPDRFSGSKSGNMASLTVSGLQAEDEANYYCSSYAGSKRVFGGGTKLTVL
notes: human IgG1
B10: no binding [1]; no binding [2].

B11: COV_2037 (antibody, V domains shown)
VH: QVQLVQSGAEVKKPGASVKVSCKVSGYTLTELSMHWVRQAPGKGLEWMGGFDPEDAETIYAQKFQGRVTMTEDTSTDTAYMELSSLRSEDTAVYYCATAGAITGTPTNYSYYYGMDFWGQGTTVTVSS
VL: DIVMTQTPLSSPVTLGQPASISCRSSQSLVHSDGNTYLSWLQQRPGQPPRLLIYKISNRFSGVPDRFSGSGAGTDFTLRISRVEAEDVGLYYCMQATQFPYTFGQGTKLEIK
notes: human IgG1
B11: no binding [1]; no binding [2].

B12: COV_2054 (antibody, V domains shown)
VH: EVQLVESGGGVLQPGRSLRLSCAASGFTFNNYALHWVRQAPGKGLEWVAVISYDGSSKYYADSVRGRLTISRDNSRNTLYLQMNSLRPEDTAIYYCARDGDGLWLGESFYFDDWGQGTLVTVSS
VL: DIQMTQSPSTLSASVGDRVIITCRASQSISSWLAWYQQKPGKAPKLLIYEASTLQSGVPSRFSGSGSGTEFTLTISSLQPDDSATYYCQQYNSYPVHFSQGTKLEIK
notes: human IgG1
B12: no binding [1]; no binding [2].

B13: COV_2057 (antibody, V domains shown)
VH: EVQLVQSGAEVKKPGESLKISCKGSGYSFISYWIAWVRQMPGKGLEWMGIIYPGDSDTTYSPSFQGQVTISADKSISTAYLQWSSLKASDTAIYYCARLLYYSDSSPLDSWGQGTLVTVSS
VL: DIQMTQSPSSLSASVGDRVTITCRASQSISTYLNWYQQKPGKAPNLLIYAASSLQSGVPSRFSGSGSGTDFTLTISSLQPEDFATYYCQQSHSTPRTFGPGTKVDIK
notes: human IgG1
B13: no binding [1]; no binding [2].
